{
  "source": "patent US20180147257A1",
  "about": "(Stanford University, published 2018)",
  "target": "T1, PDL1 displayed on yeast cells (UniProt Q9NZQ7 19-238, limits assumed)",
  "T1 construct": "Control for the yeast display staining; also called closest CD277 structural homologue",
  "T1 sequence (Q9NZQ7 19-238 limits assumed)": "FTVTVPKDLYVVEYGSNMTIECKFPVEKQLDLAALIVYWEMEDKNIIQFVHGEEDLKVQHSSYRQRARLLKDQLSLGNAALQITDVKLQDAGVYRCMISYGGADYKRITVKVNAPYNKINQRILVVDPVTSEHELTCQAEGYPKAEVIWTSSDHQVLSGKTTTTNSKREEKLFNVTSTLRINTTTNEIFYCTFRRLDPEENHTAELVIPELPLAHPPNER",
  "test": "FACS staining of yeast displaying PDL1 with purified LTβR-IgG1 fusion protein",
  "data": [
    {"binder": "LTβR-IgG1 fusion protein (Fc fusion, UniProt P36941 31-227, looked up, Purified fusion protein; also called LTBR-IgG1 fusion protein; not shown: IgG1 part of the fusion) QAVPPYASENQTCRDQEKEYYEPQHRICCSRCPPGTYVSAKCSRIRDTVCATCAENSYNEHWNYLTICQLCRPCDPVMGLEEIAPCTSKRKTQCRCQPGMFCAAWALECTHCELLSDCPPGTEAELKDEVGKGNNHCVPCKAGHFQNTSSPSARCQPHTRCENQGLVEAAPGTAQSDTTCKNPLEPLPPEMSGTMLM", "values": [
      {"measurement": "binding result", "result": "no binding"}
    ]}
  ]
}
